Laboratory results as given in US20240352134A1 (NANJING IMMUNOPHAGE BIOTECH, published 2024).

What was measured:
[1] = target: T1, human CCR8 (human, UniProt P51685 1-355); experiment: FACS as in Example 2; antibody after 40° C. 1 W; ratio to T0
T1 construct: whole, on cells; also called hCCR8; C-C Motif Chemokine Receptor 8

[2] = target: T1, human CCR8; experiment: FACS as in Example 2; antibody after Freeze/thaw 5FT; ratio to T0
[3] = target: T2, hCCR8(T103A) (human, UniProt P51685 1-355); experiment: flow cytometry on 293F cells transiently expressing the mutant; column 'Inhibition EC50 (nM)'
T2 construct: whole, on cells
T2 sequence (P51685 whole entry T103A): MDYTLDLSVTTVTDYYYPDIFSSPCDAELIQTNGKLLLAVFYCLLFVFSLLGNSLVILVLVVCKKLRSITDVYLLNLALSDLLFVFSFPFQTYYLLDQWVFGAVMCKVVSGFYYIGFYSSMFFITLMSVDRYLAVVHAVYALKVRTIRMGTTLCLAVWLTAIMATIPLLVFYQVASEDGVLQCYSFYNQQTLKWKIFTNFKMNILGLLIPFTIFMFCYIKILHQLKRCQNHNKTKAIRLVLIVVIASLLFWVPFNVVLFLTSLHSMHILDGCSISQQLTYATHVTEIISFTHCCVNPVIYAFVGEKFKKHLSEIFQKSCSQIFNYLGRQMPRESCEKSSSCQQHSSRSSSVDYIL
Method: (§1) Human, rat, dog, mouse and cynomolgus CCR8 sequence were analysis. The result was shown that ECD2 regions of human, rat, dog, mouse and cynomolgus CCR8 were similar (Table 10). […] After reacting at 4° C. for 1 hour, it was reacted with Alexa Fluor 488 affinpure goat anti-human Ig(H+L) (Jackson, 109-545-003) and flow cytometry analysis was performed. The highest MFI of serially dilution is supposed as 100%, the inhibition percent was calculated according to the following formula.

[4] = target: T3, hCCR8(V104A) (human, UniProt P51685 1-355); experiment: as above
T3 construct: whole, on cells
T3 sequence (P51685 whole entry V104A): as the sequence (P51685 whole entry T103A) above, with A103T, V104A counted along it
Method: as §1

[5] = target: T4, hCCR8(L95A) (human, UniProt P51685 1-355); experiment: as above
T4 construct: whole, on cells
T4 sequence (P51685 whole entry L95A): as the sequence (P51685 whole entry T103A) above, with L95A, A103T counted along it
Method: as §1

[6] = target: T5, hCCR8(Y94A) (human, UniProt P51685 1-355); experiment: as above
T5 construct: whole, on cells
T5 sequence (P51685 whole entry Y94A): as the sequence (P51685 whole entry T103A) above, with Y94A, A103T counted along it
Method: as §1

[7] = target: T6, hCCR8(D97A) (human, UniProt P51685 1-355); experiment: as above
T6 construct: whole, on cells; also called mutant of 97 aa in CCR8
T6 sequence (P51685 whole entry D97A): as the sequence (P51685 whole entry T103A) above, with D97A, A103T counted along it
Method: as §1

[8] = target: T7, hCCR8(Q98A) (human, UniProt P51685 1-355); experiment: as above
T7 construct: whole, on cells
T7 sequence (P51685 whole entry Q98A): as the sequence (P51685 whole entry T103A) above, with Q98A, A103T counted along it
Method: as §1

[9] = target: T8, hCCR8(M105A) (human, UniProt P51685 1-355); experiment: as above
T8 construct: whole, on cells
T8 sequence (P51685 whole entry M105A): as the sequence (P51685 whole entry T103A) above, with A103T, M105A counted along it
Method: as §1

[10] = target: T9, hCCR8(K107A) (human, UniProt P51685 1-355); experiment: as above
T9 construct: whole, on cells
T9 sequence (P51685 whole entry K107A): as the sequence (P51685 whole entry T103A) above, with A103T, K107A counted along it
Method: as §1

[11] = target: T10, hCCR8(V100A) (human, UniProt P51685 1-355); experiment: as above
T10 construct: whole, on cells
T10 sequence (P51685 whole entry V100A): as the sequence (P51685 whole entry T103A) above, with V100A, A103T counted along it
Method: as §1

[12] = target: T11, hCCR8(L96A) (human, UniProt P51685 1-355); experiment: as above
T11 construct: whole, on cells
T11 sequence (P51685 whole entry L96A): as the sequence (P51685 whole entry T103A) above, with L96A, A103T counted along it
Method: as §1

[13] = target: T12, human CCR4 (human, UniProt P51679 1-360); experiment: flow cytometry on 293F cells expressing human CCR4; 14 dilutions by 3-fold from 25 µg/mL
T12 construct: whole, on cells; also called hCCR4
T12 sequence (looked up): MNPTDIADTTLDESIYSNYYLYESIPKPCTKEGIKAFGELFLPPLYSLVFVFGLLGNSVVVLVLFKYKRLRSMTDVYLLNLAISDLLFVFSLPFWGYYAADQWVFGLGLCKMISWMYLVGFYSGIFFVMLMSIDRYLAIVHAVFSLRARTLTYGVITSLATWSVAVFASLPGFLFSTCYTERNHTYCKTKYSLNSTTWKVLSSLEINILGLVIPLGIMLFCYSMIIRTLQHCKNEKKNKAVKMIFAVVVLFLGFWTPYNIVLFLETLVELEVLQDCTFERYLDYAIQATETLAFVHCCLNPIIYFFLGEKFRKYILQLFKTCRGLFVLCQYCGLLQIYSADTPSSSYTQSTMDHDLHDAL
Method: (§2) 3F11hz4 humanized antibody was tested for binding to CCR4 and CX3CR1 overexpressing cells by flow cytometry. […] After reacting at 4° C. for 1 hour, it was reacted with Alexa Fluor 488 affinipure goat anti-human Ig(H+L) (Jackson, 109-545-003) and flow cytometry analysis was performed.

[14] = target: T1, human CCR8; experiment: cell-based or functional assay
[15] = target: T1, human CCR8; experiment: FACS on human CCR8-expressing 293F cells
[16] = target: T1, human CCR8; experiment: binding affinity EC50, comparison of Table 12 (FACS on CCR8-expressing cells)
[17] = target: T1, human CCR8; experiment: FACS as in Example 2; antibody after Oxidation 24 h; ratio to T0
[18] = target: T13, human CX3CR1 (human, UniProt P49238 1-355); experiment: flow cytometry on 293F cells expressing human CX3CR1; 14 dilutions by 3-fold from 25 µg/mL
T13 construct: whole, on cells; also called hCX3CR1
T13 sequence (looked up): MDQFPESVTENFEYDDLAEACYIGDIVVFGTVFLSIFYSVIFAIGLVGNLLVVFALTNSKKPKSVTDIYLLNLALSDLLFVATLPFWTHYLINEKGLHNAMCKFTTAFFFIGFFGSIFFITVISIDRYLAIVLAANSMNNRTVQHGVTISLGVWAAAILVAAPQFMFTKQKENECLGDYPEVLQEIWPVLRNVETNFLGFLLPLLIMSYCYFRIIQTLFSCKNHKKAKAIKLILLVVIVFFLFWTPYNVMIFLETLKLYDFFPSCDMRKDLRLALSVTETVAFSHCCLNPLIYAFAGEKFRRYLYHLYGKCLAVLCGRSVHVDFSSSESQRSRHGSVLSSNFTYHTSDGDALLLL
Method: as §2

[19] = target: T1, human CCR8; experiment: cell-based or functional assay; remark: listed apart in the source
[20] = target: T1, human CCR8; experiment: FACS as in Example 2; T0 (the reference itself)
[21] = target: T1, human CCR8; experiment: flow cytometry on 293F cells expressing hCCR8; column 'Inhibition EC50 (nM)'
Method: as §1

[22] = target: T1, human CCR8; experiment: FACS as in Example 2; antibody after 40° C. 4 W; ratio to T0
[23] = target: T1, human CCR8; experiment: FACS as in Example 2; antibody after 40° C. 2 W; ratio to T0

T1 sequence (P51685 whole entry): as the sequence (P51685 whole entry T103A) above, with A103T counted along it

B1: 3F11hz4 (antibody, V domains shown)
VH: EVQLVESGGGLVQPGGSLKLSCAASGFSFNTYAMNWVRQASGKGLEWVGRIRSKSNYYATYYAASVKGRFTISRDDSKSTLYLQMNSLKTEDTAVYYCVRGRELGDYYAMDYWGQGTLVTVSS
VL: DIVMTQSPLSLPVTPGEPASISCRSSKSLLHSNGNTYLYWFLQKPGQSPQLLIYRMSNLASGVPDRFSGSGSGTDFTLKISRVEAEDVGVYYCMQHLEYPFTFGQGTKLEIK
notes: Humanized variant of 3F11; also called humanized 3F11hz4 antibody
For B1, the “Affinity EC50 (nM) Ratio” value [1] was 1.34, the “Affinity EC50 (nM) Ratio” value [2] was 1.22 and the EC50 [3] was 0.311 nM. The EC50 [4] was 0.341 nM, the EC50 [5] was 0.459 nM and the EC50 [6] was 0.306 nM. It also gave an EC50 [7] of 24 nM, an EC50 [8] of 0.194 nM and an EC50 [9] of 0.334 nM. The EC50 [10] was 0.22 nM, the EC50 [11] was 0.237 nM and the EC50 [12] was 0.28 nM. For the same binder, the binding result [13] was “no binding (tested: 25 µg/mL)”, the “Calcium mobilization IC50 (nM) Ratio; 40° C. 1 W” value [14] was 1.31 and the “Calcium mobilization IC50 (nM) Ratio; 40° C. 2 W” value [14] was 1.03. The “Calcium mobilization IC50 (nM) Ratio; 40° C. 4 W” value [14] was 2.22, the “Calcium mobilization IC50 (nM) Ratio; Freeze/thaw 5FT” value [14] was 1.5 and the “Calcium mobilization IC50 (nM) Ratio; Oxidation 24 h” value [14] was 1.63. The “Calcium mobilization IC50 (nM) Ratio; T0” value [14] was 1, the EC50 [15] was 0.194 nM and the EC50 [16] was 0.19 nM. The “Affinity EC50 (nM) Ratio” value [17] was 1.36, the binding result [18] was “no binding (tested: 25 µg/mL)” and the “Calcium mobilization IC50” value [19] was 4 nM. For the same binder, the “Affinity EC50 (nM) Ratio” value [20] was 1, the EC50 [21] was 0.234 nM and the “Affinity EC50 (nM) Ratio” value [22] was 1.35. The “Affinity EC50 (nM) Ratio” value [23] was 1.27.
